Residue numbers refer to the chain shown, from its start.
T1: LAMP5 (endogenous, on KHM-1B multiple myeloma cells and in cancer cell line lysates) (human, UniProt Q9UJQ1 30-280)
T1 construct: Endogenous LAMP5 of the cell lines; also called BAD-LAMP; C20orf103
T1 sequence: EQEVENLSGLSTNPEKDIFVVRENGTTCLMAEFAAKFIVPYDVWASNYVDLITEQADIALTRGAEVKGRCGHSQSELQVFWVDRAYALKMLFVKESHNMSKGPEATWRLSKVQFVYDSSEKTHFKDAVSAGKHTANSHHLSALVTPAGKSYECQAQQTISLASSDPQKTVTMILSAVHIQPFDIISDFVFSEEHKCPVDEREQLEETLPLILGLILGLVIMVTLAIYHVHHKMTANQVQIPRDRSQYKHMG

T2: mouse LAMP5 having a V5 tag added to the N-terminal thereof, expressed on CHO cells (mLAMP5 CHO) (mouse, UniProt Q9D387 30-280)
T2 construct: also called mouse-origined LAMP5; V5-mLAMP5
T2 sequence: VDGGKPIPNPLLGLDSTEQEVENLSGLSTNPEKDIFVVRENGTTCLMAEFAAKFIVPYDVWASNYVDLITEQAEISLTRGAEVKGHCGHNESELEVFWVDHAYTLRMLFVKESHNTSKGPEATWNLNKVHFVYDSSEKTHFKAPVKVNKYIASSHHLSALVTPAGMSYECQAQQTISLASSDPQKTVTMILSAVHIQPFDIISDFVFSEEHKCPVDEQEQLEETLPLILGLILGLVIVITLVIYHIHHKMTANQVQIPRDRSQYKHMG

B1: anti-LAMP5 monoclonal antibody D1 (antibody, mouse IgG1, V domains shown)
VH: EIQLQQSGPDLVKPGASVKVSCKASGFAFSTYNMYWVKQSHGKSLEWIGYIDPYNGDITYNQKFKGKATLTVDKSSSTAYMHLNSLTSEDSAVYYCARRDYFYAMDYWGQGTSVTVSS
VL: DIVMTQSHKFMSTSVGDRVSITCKASQGVGTAVAWYQQKPGQSPKLLIYWASTRHTGVPDRFTGSGSGTDFTLSVTNVQSEDLADYFCHQYSSYPLTFGSGTKLELK
notes: also called clone D1; D1 antibody
B2: anti-LAMP5 monoclonal antibody D10 (antibody, V domains shown)
VH: B1 VH with D10E, F27Y, S30T, T31S, D57G, T59S
VL: B1 VL with S74T, V75I, H89Q
notes: also called clone D10; D10 antibody
B3: anti-LAMP5 monoclonal antibody D9 (antibody, V domains shown)
VH: EVKLVESGGGLVKPGGSLKLSCAASGFTFSSYAMSWVRQTPEKRLEWVASISSGGSTYYPDSVKGRFTISRDNARNILYLQMSSLRSEDTAMYYCARLITTRFAYWGQGTLVTVSA
VL: ENVLTQSPAIMSASPGEKVTMTCRASSSVSSSYLHWYQQKSGASPKLWIYSTSNLASGVPARFSGSGSGTSYSLTISSVEAEDAATYYCQQYSGYPLTFGSGTKLEIK
notes: also called clone D9; D9 antibody
B4: anti-LAMP5 monoclonal antibody D2 (antibody, mouse IgG1, V domains shown)
VH: EVKLEESGGGLVQPGGSMKLSCTASGFTFSDAWMDWVRQSPEKGLEWVAEIRGKADNHATYYAESVKGRFTISRDDSKSSVYLQMNSLRTEDTAIYYCIPYYRYAMDYWGQGTSVTVSS
VL: QIVLTQSPAIMSASPGEKVTITCTASSSVSYMHWFQQKPGTSPKLWIYATSYLASGVPTRFSGSGSGTSYSLTISRMEAEDAATYYCQQKSNYPWTFGGGTNLEIK
notes: also called clone D2; D2 antibody

These binders were tested against T1, LAMP5 (endogenous, on KHM-1B multiple …) (assay: FACS on KHM-1B cells with or without IL-6 stimulation, 10 µg/mL antibody).
Method: (§1) Binding of the anti-LAMP5 monoclonal antibody produced in Example 2 to LAMP5 and mLAMP5 was evaluated by FACS. First, LAMP5 CHO (Example 2) or mLAMP5 CHO was suspended in FACS/PBS (PBS(−) comprising 0.2% bovine serum albumin (BSA) and 0.1% sodium azide) followed by disseminating into the wells of a 96-well round bottom plate at 5×10⁴ cells per well. After adding anti-LAMP5 monoclonal antibody to each well to a final concentration of 10, 2, 0.4, 0.08 or 0.016 μg/ml, the mixture was allowed to react for 1 hour on ice. After reacting, the cell suspensions were washed with FACS/PBS and allowed to react for 1 hour with FITC-labeled anti-mouse IgG antibody on ice. After reacting, the cells were washed with FACS/PBS and then suspended in FACS/PBS comprising 10 μg/ml of propidium iodide (Sigma-Aldrich Co. LLC.). The staining intensity of the cells was measured with a flow cytometer. Only viable cells not stained with propidium iodide were used in data analysis. As a result, clones D1, D2, D9 and D10 all bound concentration-dependently to LAMP5 (FIG. 2A). Clones D1, D2 and D10 in particular bound strongly in comparison with clone D9 (FIG. 2A). […] Clone D10 only bound weakly to mLAMP5 (FIG. 2B).
Next, LAMP5 expression was measured by FACS in KHM-1B cells (with or without IL-6 stimulation). FACS was carried out in the same manner as Example 4 using anti-LAMP5 monoclonal antibodies D1, D2, D9 and D10 and a negative reference in the form of IgG1κ (Pharmingen Inc., Cat. No. 553447) at concentrations of 10 μg/mL. As a result, LAMP5 was detected on the cell membrane of KHM-1B cells, and the expressed amount thereof was confirmed to be increased by IL-6 stimulation (FIG. 4).

Question: Does B1 bind?
Answer: binds

Question: Does B2 bind?
Answer: binds

Question: Does B3 bind?
Answer: binds

Question: Does B4 bind?
Answer: binds

These binders were tested against T2, mouse LAMP5 having a V5 tag added to … (assay: FACS on mLAMP5 CHO cells, FITC anti-mouse IgG).
Method: as §1

Question: Does B1 bind?
Answer: no binding (tested: 10 µg/ml (highest concentration tested))

Question: Does B3 bind?
Answer: no binding (tested: 10 µg/ml (highest concentration tested))
